These results are taken from patent US20190032049.

For data set [1], the system named is tetR:KRAB (tetR:K) (Escherichia coli). Briefly: cell_activity. The note with it: no doxycycline, stable expression, AAVS1/TetO7 K562.
Data set [2] deals with tetR:DNMT3A (tetR:D3A) (Escherichia coli). Briefly: cell_activity. The note with it: no doxycycline, stable expression, slower kinetics.

In the case of TetO7 (seven tandem TetO repeats), the activity (% eGFP-negative cells) in data set [1] and in data set [2] was 100 in each case.
